For one assay, the target named is T1, Flag–USP7 (UniProt Q93009 1-1102).
T1 construct: ubiquitin-specific protease 7 (USP7); also called Flag-tagged USP7; source: HEK293T, transfected, in lysate
Nature of the assay: pull-down; GST-fusion proteins immobilised on glutathione beads incubated with purified Flag-tagged proteins in 50 mM Tris-HCl pH 7.4, 150 mM NaCl, 0.5% Triton X-100 for 4 h at 4 °C; western blot. To be noted: both partners purified.

The next assay addresses T2, Flag–p53 (UniProt P04637 1-393).
T2 construct: p53; also called Flag-tagged p53; source: HEK293T, transfected, in lysate
Described as above. To be noted: both partners purified.

T2 sequence (P04637 whole entry): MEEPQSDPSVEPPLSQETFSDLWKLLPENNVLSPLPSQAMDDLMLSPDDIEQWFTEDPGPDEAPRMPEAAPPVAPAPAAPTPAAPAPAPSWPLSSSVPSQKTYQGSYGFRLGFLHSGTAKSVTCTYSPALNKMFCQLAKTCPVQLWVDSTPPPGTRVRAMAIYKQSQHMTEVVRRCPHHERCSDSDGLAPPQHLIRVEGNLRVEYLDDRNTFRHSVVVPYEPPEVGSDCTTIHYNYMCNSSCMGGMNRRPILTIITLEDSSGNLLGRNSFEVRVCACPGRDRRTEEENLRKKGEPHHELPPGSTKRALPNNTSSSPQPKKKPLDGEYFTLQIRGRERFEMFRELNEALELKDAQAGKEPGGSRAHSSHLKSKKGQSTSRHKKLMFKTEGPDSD
T1 sequence (Q93009 whole entry): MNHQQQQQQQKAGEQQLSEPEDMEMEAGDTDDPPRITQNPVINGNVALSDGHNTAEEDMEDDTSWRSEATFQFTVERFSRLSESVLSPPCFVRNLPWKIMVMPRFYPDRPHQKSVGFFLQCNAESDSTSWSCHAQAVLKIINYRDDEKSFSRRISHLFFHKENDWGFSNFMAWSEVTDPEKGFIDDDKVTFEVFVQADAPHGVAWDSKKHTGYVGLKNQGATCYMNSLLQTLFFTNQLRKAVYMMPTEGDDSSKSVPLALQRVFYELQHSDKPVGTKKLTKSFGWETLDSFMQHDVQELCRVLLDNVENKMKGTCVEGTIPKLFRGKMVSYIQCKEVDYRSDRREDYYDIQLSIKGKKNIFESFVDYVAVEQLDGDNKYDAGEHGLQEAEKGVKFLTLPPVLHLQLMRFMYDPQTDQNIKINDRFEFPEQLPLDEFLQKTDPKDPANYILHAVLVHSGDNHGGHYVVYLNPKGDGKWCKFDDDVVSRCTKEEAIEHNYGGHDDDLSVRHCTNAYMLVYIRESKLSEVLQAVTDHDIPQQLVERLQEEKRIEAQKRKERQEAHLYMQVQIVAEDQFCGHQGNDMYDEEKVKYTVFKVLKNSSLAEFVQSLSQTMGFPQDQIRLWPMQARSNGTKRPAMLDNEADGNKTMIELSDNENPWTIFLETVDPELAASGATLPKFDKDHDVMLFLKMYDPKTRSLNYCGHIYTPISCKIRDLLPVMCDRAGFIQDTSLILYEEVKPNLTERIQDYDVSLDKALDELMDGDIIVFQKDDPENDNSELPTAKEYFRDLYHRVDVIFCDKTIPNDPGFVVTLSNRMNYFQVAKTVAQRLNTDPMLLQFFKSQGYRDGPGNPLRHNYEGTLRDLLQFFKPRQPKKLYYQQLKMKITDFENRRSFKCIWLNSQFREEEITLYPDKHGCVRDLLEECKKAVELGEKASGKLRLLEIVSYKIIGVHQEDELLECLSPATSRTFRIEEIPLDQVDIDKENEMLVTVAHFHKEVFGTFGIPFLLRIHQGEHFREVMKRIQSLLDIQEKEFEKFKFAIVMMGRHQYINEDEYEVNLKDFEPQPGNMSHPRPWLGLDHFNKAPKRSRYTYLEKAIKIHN

B1: GST–MLF2 (natural protein, UniProt Q15773 1-248, looked up)
chain: MFRFMRDVEPEDPMFLMDPFAIHRQHMSRMLSGGFGYSPFLSITDGNMPGTRPASRRMQQAGAVSPFGMLGMSGGFMDMFGMMNDMIGNMEHMTAGGNCQTFSSSTVISYSNTGDGAPKVYQETSEMRSAPGGIRETRRTVRDSDSGLEQMSIGHHIRDRAHILQRSRNHRTGDQEERQDYINLDESEAAAFDDEWRRETSRFRQQRPLEFRRLESSGAGGRRAEGPPRLAIQGPEDSPSRQSRRYDW
notes: myeloid leukemia factor 2 (MLF2); also called glutathione-S-transferase (GST) tagged MLF2
Regarding B1, the binding result in the assay with Flag–USP7 and in the assay with Flag–p53 was “binds” throughout.

Source of the values: article PMC10502657 (Advanced Science, 2023).
